{"source": "the DeepSol protein solubility set"}
{"test": "soluble on expression in E. coli; label from the status in PepcDB or PDB records"}
{"sequence": "AIAAQEENKRLVVVVPNEMTVPSRRAFTSEDEAWKSYLENPLTAATKAMMSINGDEDSVAALGILYDYYKVPKEKRLLPVHKLPEDHEKSRISQDGLESAENRIHVLKSLPVNLSLNPDSENKQDLFGTVPAEDGVVATVKPEVYAQSFSSHHQQLHYHRTPYHPHLQDSVSVSHDRYMKDDQCSTPDSTFEDSYPEDPMRYRVPTTPAAEDFTHEQAGLNMFQYNIEASRSVREKAADGPMVYLNKGQFYGITLSETGANKGLRHPISKVRTVVMVVFGQEKCRDEQLKHWNYWHTRQHTAKQRVLDIADYKESFNTIGNIEEIAYNAVSFTWDPAAVHKSFCASVILL", "soluble on expression in E. coli": "soluble"}
{"sequence": "MYPDGLTENEKLKVKELCTMVNISDEDAIKLLKENDWDIAISSRRVSKQEDKTLVPGTSREEIDLDRLSSRLRVHGLAFYLPDFGGFPNEFRTFLEKDLIETQTQKRLEASRHLNWWHQFGQKLYPLSTTGDGNCLLHAASLGMWGVHDRQLSLRETLYELLTNGARKEAIRRRWKWVENHMNQSNGLALTLSENEWELEWDVVLGLSSPLPRKQEDNGSNSTDQIYESLEAIHVFALAHVLKRPVVVVSDTILRNAKGEELSPVAFGGIYLPLECPPSQCHRSPLVLCYDSAHFSPLVLMRTETNNKQIIPIIDVNRNLLPVHFAVDPGESFDWSKLETNSNTQTTTDMSQIDKLALISQYMDIIRLDVRRGSIRSSRRVRSAHAQLLTESRGENGQNLPQKSIKPRDLSAHSSDEQPSNNAKGMTLASSGIGSGRHEKWRLINEIRTHVLRTFRISSSTRGKEKLIDTDDCIARMNSTCVLASELLPTHHQYMDKIINEYMKSAKQRFQQNQRTQSDSRKRISRSFSASSLMLTCIGCDSEFKPASQVTNIMCDQCFAWQKMSVLTSNCDQFMGNSGPPCKSSTLPSFGSNDSNQNDKENIVEVLNVVPKDGAKTLTSMRAVEDENGVVHYYMDDEVADS", "soluble on expression in E. coli": "not soluble"}
{"sequence": "SNAMKRSIEDTPIVLIGAGNLATNLAKALYRKGFRIVQVYSRTEESARELAQKVEAEYTTDLAEVNPYAKLYIVSLKDSAFAELLQGIVEGKREEALMVHTAGSIPMNVWEGHVPHYGVFYPMQTFSKQREVDFKEIPFFIEASSTEDAAFLKAIASTLSNRVYDADSEQRKSLHLAAVFTCNFTNHMYALAAELLKKYNLPFDVMLPLIDETARKVHELEPKTAQTGPAIRYDENVIGNHLRMLADDPAMQRLYELLSRSIHERQ", "soluble on expression in E. coli": "soluble"}
{"sequence": "MAHHHHHHMPLPPVESGPAAMTRRNFLVEMNRLRVSQYMPTRKQLEEEDLRIATIRQEEKRAKHAEWAESRRKAADSYNAAGTNSGRPLPGSVSRSMRASGKGKPAENTYKLEKEEEAAKKREYNRLYEQEAKHQLAIRQATLKQMHDDEVRQMEALRKVNEEEDRKVAEAHAQAMEEERQYMERLKQSNKRELAARKAEQQAKEARDRQLQELVNENNRHRAEMDERRLKNVTRMLHLQNEQFHREAMMSKKASEAKHYEEVAATEERNRRLTKEEQEAAQRKKEQFRQDFEDCIARDKEFRRTHNYDEPMEVTRQRNELAAQSYRLVLEEERLQNAERRQQYRKDLMDQIMAKQTYRMTHLDEAGI", "soluble on expression in E. coli": "not soluble"}
{"sequence": "MGTLLATRLKNRRKELKMSQRELAEGICKQGQISRLESGEFTPGADFLHALAKKLKVSMDYFFDEQVVEEVNELSEFKKLAQTFITNRNYESLKYIYELENVKAHRLSLADKFYMEWIKSLIDFYFYGQKEEAITRLENMLPQLNVSDLNYLQVSNTLFNFYYDIEDLERFNEIRDKLEHQVNQLNLNTIEELELSIKFNYNVCRYLWLQKNIEEAITKITATIKQCKEYRTTYLLADLYLLMGSVSENFSSKSSVKEYFETAHFLYKLEENMSMALKVEHYFADITE", "soluble on expression in E. coli": "not soluble"}
{"sequence": "MGSDKIHHHHHHVKEVKPKEDRVVLTKDQEKSLQIFCEWLEAPYSFKPFVMKGFAGSGKTYLSMKLLKKVDQLGLCWTVVAPTHKAVGVLREGLKNESIQPTWFPSTIHRLLRLKLKRQADIEICEKTDQTESSLENLGLVLIDEASMIDSKLLEITLECARCNSTRLVFVGDPAQLPPVGESTSSVFLMKRAVNTELREVVRHQGPVLKLAKVIRDGQIPCMQPPLVKVINSKKGNVGILDRTSWLERAKLALRLSSLEDDHDRARILCYTNRIVDNLVPHARRAIHGEMADQYQVLPGEVLISRKAVMVNASLNVDELGEEPDILISSNREMVVEDVIPNSFDLASLGIHQDFENPLPVIETQVAKVNCDQKEFSLRLMPQIGSKARKDLDLSLNELSNLARERGRKNSASTWKLFFFIRDSFASLGPASVLTIHRSQGSTFGEVFITSDAFWPKDLEFRRRLVYVAVSRASKGVWIVGDNKSKMNQALLEKLLMD", "soluble on expression in E. coli": "not soluble"}
{"sequence": "MIDIHCHILPAMDDGAGDSADSIEMARAAVRQGIRTIIATPHHNNGVYKNEPAAVREAADQLNKRLIKEDIPLHVLPGQEIRIYGEVEQDLAKRQLLSLNDTKYILIEFPFDHVPRYAEQLFYDLQLKGYIPVIAHPERNREIRENPSLLYHLVEKGAASQITSGSLAGIFGKQLKAFSLRLVEANLIHFVASDAHNVKTRNFHTQEALYVLEKEFGSELPYMLTENAELLLRNQTIFRQPPQPVKRRKLFGFF", "soluble on expression in E. coli": "not soluble"}
{"sequence": "AIAEEDEFIGEKTFQRYCAEFIKHSQQIGDSWEWRPSKDCSDGYMCKIHFQIKNGSVMSHLGASTHGQTCLPMEEAFELPLDDCEVIETAAASEVIKYEYHVLYSCSYQVPVLYFRASFLDGRPLTLKDIWEGVHECYKMRLLQGPWDTITQQEHPILGQPFFVLHPCKTNEFMTPVLKNSQKINKNVNYITSWLSIVGPVVGLNLPLSYAKATSQDERNVP", "soluble on expression in E. coli": "soluble"}
{"sequence": "MSLQVKHLLLIAILALTAACSSNKETVDENLSESQLYQQAQDDLNNKSYNSAVTKLKALESRYPFGRYAEQAQLELIYANYKNMEPEAARAAAERFIRLHPQHPNVDYAYYLKGLSSFDQDRGLLARFLPLDMTKRDPGAARDSFNEFAQLTSRFPNSRYAPDAKARMVYLRNLLAAYEVHVGHYYLKRQAYVAAANRGRYVVENFQETPAVGDGLAIMVEAYRRLGLDDLASTSLETLKLNYPDNASLKDGEFVARESEADTRSWLAKATLGLIEGGEPPPHMETQAAKDVIKQYEDAEREIPAELKPENQDHSADDEKPESDDDEDSGRSWWSYMTFGLFDEGGSHHHHHH", "soluble on expression in E. coli": "soluble"}
{"sequence": "MGSDKIHHHHHHMPKLKLIGVDLGGTTFSVGLVSEDGKILKKVTRDTLVENGKEDVIRRIAETILEVSDGEEAPYVGIGSPGSIDRENGIVRFSPNFPDWHNVPLTDELAKRTGKKVFLENDANAFVLGEKWFGAGRGHDHIVALTLGTGIGGGVVTHGYLLTGRDGIGAELGHVVVEPNGPMCNCGTRGCLEAVASATAIRRFLREGYKKYHSSLVYKLAGSPEKADAKHLFDAARQGDRFALMIRDRVVDALARAVAGYIHIFNPEIVIIGGGISRAGEILFGPLREKVVDYIMPSFVGTYEVVASPLVEDAGILGAASIIKERIGG", "soluble on expression in E. coli": "not soluble"}
{"sequence": "MRGPAPMPDTSLSTFLARPAPTILVEIEAVKGSSPREAGTFMLVSQEALWETIGGGQFEYMAIDHARAMLRTGAAEDRMDIPLGPEIGQCCGGRTLIRFRLITAEIAATLEARLKGEAEQQPAVFIFGAGHVGKALADALSLLPLTLKVVETRESELRDIPAGIASILTPMPEAFVQKIPANGAAIIVTHDHALDFLIAKEALARDDLAYVGMIGSKTKRATFAHWLEREGEPPSRLAKLTLPIGGTGVRDKRPAVIAALVAAELLQAFSVAETRRSENRHDHPQGQDRA", "soluble on expression in E. coli": "not soluble"}
{"sequence": "MSLSILNSLKNIAFIGFYFIFAVNKMSRADEGRLIHLAKKREREKEDIEQQLRKLEEDKEKCRVGITNKFMANYETVEEVVKSKTYGLVSLDDMKNIQKNEISNRDLQVARGDQSSSTQSKDSQEAREKEEHVAKHTQKRFLSFAFDDEEDEEDAAPIIPKKRVGMDPTVDTSFLPDKEREEFLRKKKESLAAEWRVKQDAEKNEEITVAYAYWDGSSHRKNMKIKKGNTISQCLGRAIEALKKEFTELKSCTAENLMFVKEDLIIPHFYTFQDFIVTKAMGKTGPLFVFDSASDVRIRQDAALDYGESHPAKIVLRSWYEKNKHIYPASRWEPFVPSKKYGRNFDDLSDL", "soluble on expression in E. coli": "not soluble"}
{"sequence": "MGISEIIRSHRKKENLTQEQVANYLNISTPAVNKWENGITYPDITLLAPLARILKIDVNTLLAFNEELTEKEVNKLGRSVGEIVEKEGYQKAFEKGSDLIKQYSSCDELILRISSILRLFLVTAKVEKKDIYEDKIIAWAEIVAASRNEKTADMAKIFLSAVYRDKKEYKKAKEILDKVPDMELGSDKKIQQLLLLESSGEFDKAYGACEEVLLYNAQESLGAMVLIIRMLLKENKFSEAEEYTQRAKKLVEVFDLGEYSKYTLELSLIKEKRDEEKAVELIRNMIDNADSMNNFMRSKLYKHRKIEVTNSLDKDRYKKIVRMSIIKDKALDFVKDDPRVKSLLK", "soluble on expression in E. coli": "not soluble"}
{"sequence": "MTPFPAYVPPDFTRPDLAAAPPVRVAEAPGSGVLPAGFHATSNYPEYVHLGGGRWLLASGSRMDAVLVLDGDMLRVVEPRLVRRGDRVVVGRTENGEEGIYVHTTGFDAPAGAGGDKFTFRSRGTRESPFSRSYEELYDILRHDRDHGHIVWVLGPAVAFDRDSRAAMAGLIGGGYCHALLAGNALATHDLEAALFHTGLGQDIYTQALVAGGHYHHLDVINEVLRHGSLERAIAELGIRDGIIRACLEHRVPVVLAGSIRDDGPLPDVITDSRQAQDAMRAHARRATTVIALATQLHAIAVGNMTPSYRVLDDGTVRPVYFYIVDMSEFGADKLANRGSGQARAILTNVQDFMVNLWNNLKG", "soluble on expression in E. coli": "not soluble"}
{"sequence": "MNNPVVLDSKTELNEQTAQDVRLQLRQDADVQRIYNAVDIKDQLELIELGKEPSMEISRFADQILHTMSLSKIEDSGELLKQLGKIMDRFDSKDFAEEKSGFFSRMFKKADKMIEQIFSKYQTMGREIDKVYVEITKYQDEMKKSIGTLDGLYEQNLKYYLDLEKYVVAGEMLLERLNTELVPMYEERVRNNDQLAGIELESLKNSVEILEQRIDDLEKARMVALLTAPQIRMIQRGNNKLIGKINTAFITTIPIFKNGIIQAVNAKRQKLVADSMAELDRRTNELLKKNAQNIATQSVEVARLSGSSSIKMETLEETWNIISRGMQETQQIEEQNKREREESRKRMATLTENIKKELQG", "soluble on expression in E. coli": "not soluble"}
{"sequence": "MNATIQTIPELLIQTRGNQTEVARMLSCARGTVLKYNRDSKGERHVIVNGVLMVKQGKRGRP", "soluble on expression in E. coli": "not soluble"}
{"sequence": "SYEQLKGEWNRKSPNLSKCGEELGRLKLVLLELNFLPTTGTKLTKQQLILARDILEIGAQWSILRKDIPSFERYMAQLKCYYFDYKEQLPESAYMHQLLGLNLLFLLSQNRVAEFHTELERLPAKDIQTNVYIKHPVSLEQYLMEGSYNKVFLAKGNIPAESYTFFIDILLDTIRDEIAGCIEKAYEKILFTEATRILFFNTPKKMTDYAKKRGWVLGPNNYYSFASQQQKPEDTTIPSTELAKQVIEYARQLEMIV", "soluble on expression in E. coli": "soluble"}
{"sequence": "MEQKHNGIIFTAIPNESNEYYQPFYEDLIYFNECLNEKKSIADQLISLSVEEQDFHTSCFEYDDIWLRDVAPVVTNHLVKFKYRPNYLPDDQGRYLDQQFNKWLKKNDFEYVKSPLILDGGNLIWNKKDTVILTERIFDDNDDWTEEEIIEQLEWDLDVSRVIIIPAEEGDVLAHADGMVKFIDEHTMFISDFLGDHEFRYSVEEIIQEQMPEAEFIVVPSSYTEKGQYDQEIASAKGLYINMLESCDALYVPKFGLAKDEEVLRYIQQYTEKQVIQIHVGEISTMGGAMNCLTWYCPSHLLPSKMRRLKNQNEDFSMKKIFDWFLEHHHHHH", "soluble on expression in E. coli": "soluble"}
{"sequence": "MKSRTRWLTSEELVTLFEAMRQAPGFSVENGLSIKLLLLLAVRKGELIGARWSEFDLDKAVWYLPAERTKTESAIDIPLPPIAVEWLRELQRLAGVSKWVLPARKMQDRMIPHIAESTLSVALAKIKHGLEPFTIHDLRRTARTHFEALGVAPHIAERCLNHKIKGIEGIYNRHDYFEERKAALEAWAGLLLQIERGEADKVVPIRRAVATKQLEHHHHHH", "soluble on expression in E. coli": "not soluble"}
